Measurements taken from patent US6710030 (dated 2004).
“And” between values parts separate entries of the source, which are not always exact repeats. Identical values can stand only once.

Assays:
[1] = molecular target: canine platelet (GP)IIb/IIIa on canine platelets (canine, UniProt Q9TUN8 32-1036; A0A8I3PMU9 158-919)
[2] = molecular target: T1, human platelet membrane glycoprotein (GP)IIb/IIIa (fibrinogen receptor, integrin αIIbβ3) on human platelets (human, UniProt P08514 32-1039; P05106 27-788)
[3] = molecular target: T1, human platelet membrane glycoprotein …; assay: Scatchard analysis of CN binding to unactivated human platelets

B1: contortrostatin (CN), homodimeric disintegrin purified from Agkistrodon contortrix contortrix (south (ligand)
chain: DAPANPCCDAATCKLTTGSQCADGLCCDQCKFMKEGTVCRRARGDDLDDYCNGISAGCPRNPFHA
notes: also called CTTX
Question: Which results are given for B1?
Answer: IC50 [1]: 0.24 mg/L; IC50 [2]: 25 nM and 0.4 µg/mL; Kd [3]: 0.037 µM
